According to patent US10907134B2, “Mutated genes for the catalytic protein of oplophorus luciferase and use thereof” (JNC CORPORATION, priority 2013, dated 2021):

What was measured:
[1] = Luminescence activity of ZZ-fused KAZ mutants in crude enzyme solutions; type: biochemical; conditions: Table 4; ZZ-fused (pCold-ZZ-P-); 1 μL crude enzyme solution, 1 mM DTT; 1 μg coelenterazine
Protocol: To express the ZZ-fused KAZ mutants in E. coli, the recombinant plasmid prepared in EXAMPLE 6 was used. Crude enzyme solutions were prepared in the same manner as EXAMPLE 4 using the E. coli BL21 strain (Novagen, Madison, Wis.) as a host cell. The resultant crude enzyme solution, 5 μL, was subjected to SDS-PAGE analysis to confirm expression of the proteins (FIG. 2). In FIG. 2, M and 1 to 18 are the same as described in FIG. 1.
DTT was added to the crude enzyme solution obtained in EXAMPLE 7 at a final concentration of 1 mM and the mixture was allowed to stand in an ice water for more than 5 hours. A luminescence reaction was started by adding 1 μL of the crude enzyme solution to 100 μL of TE containing 1 μg of coelenterazine (manufactured by JNC Corp.). The luminescence activity was determined using a luminometer (manufactured by Atto Inc.: AB2200) for 60 seconds, and the maximum intensity of luminescence (Imax) was shown as relative luminescence activity.
To express the ZZ-fused KAZ mutants in E. coli, the recombinant plasmid constructed in EXAMPLE 16 and pCold-ZZ-P-V44I-KAZ, pCold-ZZ-P-A54I-KAZ, pCold-ZZ-P-Y138I-KAZ prepared in EXAMPLE 6 were used. Crude enzyme solutions were prepared in the same manner as EXAMPLE 7, using the E. coli BL21 strain (Novagen, Madison, Wis.) as a host cell. DTT was added to the crude enzyme solutions at a final concentration of 1 mM. The mixtures were allowed to stand over 5 hours on ice, and luminescence activities were then assayed. The luminescence activities were determined by the method described in EXAMPLE 8. Also, 5 μL of the resultant crude enzyme solutions were subjected to SDS-PAGE analysis to confirm protein expression (FIG. 4). In FIG. 4, M and 1 to 9 are as follows. M: molecular weight size markers; 1: ZZ-P-KAZ; 2: ZZ-P-KAZ-V44I; 3: ZZ-P-KAZ-A54I; 4: ZZ-P-KAZ-Y138I; 5: ZZ-P-KAZ-V44I-A54I; 6: ZZ-P-KAZ-V44I-Y138I; 7: ZZ-P-KAZ-A54I-Y138I; 8: ZZ-P-KAZ-V44I-A54I-Y138I; and 9: ZZ-P-dnKAZ.

CHO-K1 cells = assay: Luminescence activity of KAZ mutants expressed in animal culture cells with signal peptide of Gaussia luciferase for secretion; type: cell-based, Chinese hamster; conditions: Table 5, pcDNA3-GLsp- vectors, CHO-K1, 48 hours, 0.5 μg coelenterazine; for Relative Luminescence Activity (Imax) (%) Cell Extracts: 5 μL cell extracts; for Relative Luminescence Activity (Imax) (%) Culture Medium: 5 μL culture medium
Protocol: Chinese hamster ovary cell line CHO-K1 was cultured in Ham's F-12 medium (manufactured by Wako Pure Chemical Industries, Ltd.) supplemented with 10% (v/v) fetal bovine serum (manufactured by Biowest Inc.). The CHO-K1 cells were plated in a 6-well plate in 1×10^5 cells/well/2 mL medium (n=2) and cultured in an incubator at 37° C. in 5% (v/v) CO2. After 24 hours, the purified recombinant plasmid was transfected to CHO-K1 cells using a FuGene HD transfection kit (manufactured by Promega Corp.), which was provided for subsequent experiment. Specifically, 1 μg of the recombinant plasmid pGL4.13 [Luc2/sv40], 0.1 μg of the internal standard vector and 3 μL of FuGene HD were added to 100 μL of the medium, which was allowed to stand at room temperature for 15 minutes. Subsequently, 100 μL of the DNA-FuGene complex was added to the cells in the 6 wells. After incubation for 48 hours, the culture medium was collected. On the other hand, the KAZ mutants expressed in the cells were washed 3 times with 3 mL of 1×PBS, then suspended in 1 mL of 1×PBS and disrupted on ice by ultrasonication, which was used as enzyme solutions of the cell-extracts of KAZ mutants.
A luminescence reaction was started by adding 5 μL of the culture media and cell extracts obtained in EXAMPLE 10 to 100 μL of 30 mM Tris-HCl (pH 7.6)-10 mM EDTA (manufactured by Wako Pure Chemical Industries, Ltd.) containing 0.5 μg of coelenterazine (manufactured by INC Corp.). The luminescence activity was determined using a luminometer (manufactured by Atto Inc.: AB2200) for 60 seconds, and the maximum intensity of luminescence (Imax) was defined as a percentage.
Culture media of the KAZ mutants with two amino acid substitutions and KAZ mutants with three amino acid substitutions and the enzyme solutions of the cell-extracts of KAZ mutants were prepared in the same manner as EXAMPLE 10.
In the resultant enzyme solutions and the enzyme solutions of the cell-extracts of KAZ mutants, luminescence activities were determined in the same manner as EXAMPLE 11.

[2] = Luminescence activity of KAZ mutants (pCold II, E. coli) in supernatant and precipitate of crude enzyme solution; type: biochemical; conditions: Table 3, pCold II, E. coli BL21, 0.5 μg coelenterazine, 60 seconds; for Relative Luminescence Activity (Imax) Precipitate: 5 μL precipitate; for Relative Luminescence Activity (Imax) Supernatant: 5 μL supernatant
Protocol: In order to express the KAZ mutants in E. coli, the recombinant plasmid prepared in EXAMPLE 3 was used. The E. coli BL21 strain (Novagen, Madison, Wis.) was used as a host cell. The BL21 strain carrying the recombinant plasmid was incubated in 5 mL of Luria-Bertani medium (hereinafter designated as LB medium) containing ampicillin (50 μg/mL) at 37° C. for 18 hours. This seed culture, 0.1 mL, was inoculated to 10 mL of LB medium and incubated for 3 hours, followed by cooling in an ice-water bath for 1 hour. IPTG was added to the culture medium at a final concentration of 1 mM, followed by incubation at 15° C. for further 20 hours. After completion of the incubation, 1 mL of the cultured medium was harvested by centrifugation at 10,000 rpm for 2 minutes. The thus collected E. coli cells were suspended in 0.5 mL of 30 mM Tris-HCl (pH 7.6)-10 mM EDTA (manufactured by Wako Pure Chemical Industries, Ltd.) (hereinafter designated as TE). The E. coli cells were disrupted by sonication for 3 seconds using a Branson Model 250 Sonifier (Danbury, Conn.) to give a crude enzyme solution. After 0.5 mL of the crude enzyme solution was further centrifuged at 10,000 rpm for 2 minutes to separate the supernatant from the precipitate, the precipitate was suspended in 0.5 mL of TE. Then 20 μL each of the supernatant and precipitate were analyzed by SDS-PAGE to confirm the presence or absence of soluble and insoluble proteins. The results are shown in FIG. 1, wherein M and 1 to 17 denote: M: molecular weight size markers; 1: KAZ; 2 KAZ-A4E; 3: KAZ-Q11R; 4: KAZ-Q18L; 5: KAZ-L27V; 6: KAZ-A33N; 7: KAZ-K43R; 8: KAZ-V44I; 9: KAZ-A54I; 10: KAZ-F68D; 11: KAZ-L72Q; 12: KAZ-M75K; 13: KAZ-I90V; 14: KAZ-P115E; 15: KAZ-Q124K; 16: KAZ-Y138I; 17: KAZ-N166R and 18: dnKAZ.
A luminescence reaction was started by the addition of 5 μL each of the supernatant and precipitate obtained in EXAMPLE 4 to 100 μL of TE containing 0.5 μg of coelenterazine (manufactured by JNC Corp.). The luminescence activity was measured for 60 seconds using a luminometer (manufactured by Atto Corp.: AB2200) and expressed in terms of relative luminescence activity (Imax).
To express the KAZ mutants with two amino acid substitutions and three amino acid substitutions in E. coli using a pCold II vector, the recombinant plasmid constructed in EXAMPLE 13 and pCold-V44I-KAZ, pCold-A54I-KAZ, pCold-Y138I-KAZ prepared in EXAMPLE 3 were used. The supernatant and precipitate of each crude enzyme solution were prepared in the same manner as EXAMPLE 4, using the E. coli BL21 starin (Novagen, Madison, Wis.) as a host cell. The supernatant and precipitate, 20 μL each, were subjected to SDS-PAGE analysis to confirm the presence or absence of soluble proteins and insoluble proteins. In FIG. 3, M and 1 to 9 are as follows. M: molecular weight markers; 1: dnKAZ; 2: KAZ; 3: KAZ-V44I-A54I; 4: KAZ-V44I-Y138I; 5: KAZ-A54I-Y138I; 6: KAZ-V44I-A54I-Y138I; 7: KAZ-V44I; 8: KAZ-A54I; and 9: KAZ-Y138I.
The luminescence activities of 5 μL each of the supernatant and precipitate obtained in EXAMPLE 14 were determined in the same manner as EXAMPLE 5. The luminescence activity was assayed with a luminometer (manufactured by Atto Inc.: AB2200) for 60 seconds, and the maximum intensity of luminescence (Imax) was shown as relative luminescence activity.

Row | Molecule | Relative Luminescence Activity (Imax) [1] | Relative Luminescence Activity (Imax) (%) Cell Extracts (CHO-K1 cells) [%] | Relative Luminescence Activity (Imax) (%) Culture Medium (CHO-K1 cells) | Relative Luminescence Activity (Imax) Precipitate [2] | Relative Luminescence Activity (Imax) Supernatant [2]
1 | KAZ-I90V: KAZ with single amino acid substitution I90V (protein) FTLADFVGDWQQTAGYNQDQVLEQGGLSSLFQALGVSVTPIQKVVLSGENGLKADIHVIIPYEGLSGFQMGLIEMIFKVVYPVDDHHFKVILHYGTLVIDGVTPNMIDYFGRPYPGIAVFDGKQITVTGTLWNGNKIYDERLINPDGSLLFRVTINGVTGWRLCENILA | 1.8 | 0.3 | less than 0.01% | 0.4 | 2.1
2 | KAZ-N166R: KAZ with single amino acid substitution N166R (protein) FTLADFVGDWQQTAGYNQDQVLEQGGLSSLFQALGVSVTPIQKVVLSGENGLKADIHVIIPYEGLSGFQMGLIEMIFKVVYPVDDHHFKIILHYGTLVIDGVTPNMIDYFGRPYPGIAVFDGKQITVTGTLWNGNKIYDERLINPDGSLLFRVTINGVTGWRLCERILA | 3.6 | 0.2 | less than 0.01% | 0.8 | 4.7
3 | KAZ-A4E: KAZ with single amino acid substitution A4E (protein) FTLEDFVGDWQQTAGYNQDQVLEQGGLSSLFQALGVSVTPIQKVVLSGENGLKADIHVIIPYEGLSGFQMGLIEMIFKVVYPVDDHHFKIILHYGTLVIDGVTPNMIDYFGRPYPGIAVFDGKQITVTGTLWNGNKIYDERLINPDGSLLFRVTINGVTGWRLCENILA | 0.5 | 0.1 | less than 0.01% | 0.2 | 1.5

Second part, led by results:

Row | Relative Luminescence Activity (Imax) [1] | Molecule | Relative Luminescence Activity (Imax) (%) Cell Extracts (CHO-K1 cells) [%] | Relative Luminescence Activity (Imax) (%) Culture Medium (CHO-K1 cells) | Relative Luminescence Activity (Imax) Precipitate [2] | Relative Luminescence Activity (Imax) Supernatant [2]
4 | 3.7 | KAZ-Q124K: KAZ with single amino acid substitution Q124K (protein) FTLADFVGDWQQTAGYNQDQVLEQGGLSSLFQALGVSVTPIQKVVLSGENGLKADIHVIIPYEGLSGFQMGLIEMIFKVVYPVDDHHFKIILHYGTLVIDGVTPNMIDYFGRPYPGIAVFDGKKITVTGTLWNGNKIYDERLINPDGSLLFRVTINGVTGWRLCENILA | 0.3 | less than 0.01% | 0.8 | 7.4
5 | 4.5 | KAZ-P115E: KAZ with single amino acid substitution P115E (protein) FTLADFVGDWQQTAGYNQDQVLEQGGLSSLFQALGVSVTPIQKVVLSGENGLKADIHVIIPYEGLSGFQMGLIEMIFKVVYPVDDHHFKIILHYGTLVIDGVTPNMIDYFGRPYEGIAVFDGKQITVTGTLWNGNKIYDERLINPDGSLLFRVTINGVTGWRLCENILA | 0.3 | less than 0.01% | 1.1 | 16
